This data set has as its target T1, RIG-I (ΔCARDs) (human, UniProt O95786 230-925, del1-229).
T1 sequence: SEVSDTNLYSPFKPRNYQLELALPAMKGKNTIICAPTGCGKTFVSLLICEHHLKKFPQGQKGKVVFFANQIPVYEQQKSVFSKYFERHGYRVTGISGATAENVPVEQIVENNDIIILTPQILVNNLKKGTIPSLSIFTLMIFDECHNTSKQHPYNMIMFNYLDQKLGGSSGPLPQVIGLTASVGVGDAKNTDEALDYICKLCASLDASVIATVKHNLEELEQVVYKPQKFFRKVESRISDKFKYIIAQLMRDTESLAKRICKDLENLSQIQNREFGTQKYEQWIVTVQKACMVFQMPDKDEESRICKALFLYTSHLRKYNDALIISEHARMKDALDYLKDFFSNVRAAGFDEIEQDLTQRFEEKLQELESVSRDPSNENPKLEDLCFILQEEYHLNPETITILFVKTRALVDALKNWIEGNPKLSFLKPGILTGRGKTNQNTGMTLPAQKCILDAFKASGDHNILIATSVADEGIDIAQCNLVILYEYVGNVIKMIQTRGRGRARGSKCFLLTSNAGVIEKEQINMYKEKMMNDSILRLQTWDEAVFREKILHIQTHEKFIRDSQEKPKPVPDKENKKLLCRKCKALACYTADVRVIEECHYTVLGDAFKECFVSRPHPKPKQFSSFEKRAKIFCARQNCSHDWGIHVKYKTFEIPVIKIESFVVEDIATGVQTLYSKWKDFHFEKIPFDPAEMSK
The data set can be described thus: X-ray crystallography.

B1: dsRNA10 (5'OH palindromic 10-mer duplex) (dsRNA)
RNA 1: GCGCGCGCGC
RNA 2: GCGCGCGCGC
On to B1, for which the binding result is on record as “binds”.

The values are drawn from paper PMC3222294.
